Residue numbers refer to the chain shown, from its start. Blank lines part the entries; values can stand above or below the binder they belong to.
Legend:
human ROR1 [1] = target: T1, human ROR1 (human, UniProt Q01973 30-406); assay: binding site mapping
T1 construct: The immunogen was the extracellular portion (AA 1-406); also called hROR1; ROR1 protein
Experimental: (§1) As a second level screen, a series of deletion constructs were generated to determine the actual extracellular ROR1 domain to which the mAbs bind. […] As a final step, the actual amino acids targeted by these antibodies were determined. For this final screen, murinized human amino acids in the sub-domain fragments were generated to determine critical residues required for mAb binding (FIG. 15).

human ROR1 [2] = target: T1, human ROR1; assay: cross blocking, competitor D10
[3] = target: human ROR1 with the isoleucine at position 111 replaced with the murine asparagine (human, UniProt Q01973 30-406, limits assumed); assay: murinized residue screen, western blot
Experimental: as §1

murine ROR1 = target: T2, murine ROR1 (murine, UniProt Q9Z139 30-406, limits assumed); assay: screen for binding to human and murine ROR1
T2 construct: also called mouse ROR1

human ROR1 [4] = target: T1, human ROR1; assay: standard techniques, method not stated (FIG. 16B)
[5] = target: human ROR1 with the glutamic acid at position 138 replaced with the murine lysine (human, UniProt Q01973 30-406, limits assumed); assay: murinized residue screen, western blot
Experimental: as §1

human ROR1 [6] = target: T1, human ROR1; assay: standard techniques, method not stated (FIG. 16A)

T1 sequence (Q01973 30-406 limits assumed): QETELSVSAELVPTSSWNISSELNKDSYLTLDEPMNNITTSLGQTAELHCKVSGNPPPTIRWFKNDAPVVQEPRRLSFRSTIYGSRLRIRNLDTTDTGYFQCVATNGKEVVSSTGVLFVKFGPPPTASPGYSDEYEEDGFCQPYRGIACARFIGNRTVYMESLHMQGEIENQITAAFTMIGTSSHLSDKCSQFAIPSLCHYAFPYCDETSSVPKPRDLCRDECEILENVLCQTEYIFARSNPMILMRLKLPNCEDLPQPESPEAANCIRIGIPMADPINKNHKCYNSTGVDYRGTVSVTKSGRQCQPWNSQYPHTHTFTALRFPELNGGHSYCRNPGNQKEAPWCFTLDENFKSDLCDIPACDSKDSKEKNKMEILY
T2 sequence (Q9Z139 30-406 limits assumed): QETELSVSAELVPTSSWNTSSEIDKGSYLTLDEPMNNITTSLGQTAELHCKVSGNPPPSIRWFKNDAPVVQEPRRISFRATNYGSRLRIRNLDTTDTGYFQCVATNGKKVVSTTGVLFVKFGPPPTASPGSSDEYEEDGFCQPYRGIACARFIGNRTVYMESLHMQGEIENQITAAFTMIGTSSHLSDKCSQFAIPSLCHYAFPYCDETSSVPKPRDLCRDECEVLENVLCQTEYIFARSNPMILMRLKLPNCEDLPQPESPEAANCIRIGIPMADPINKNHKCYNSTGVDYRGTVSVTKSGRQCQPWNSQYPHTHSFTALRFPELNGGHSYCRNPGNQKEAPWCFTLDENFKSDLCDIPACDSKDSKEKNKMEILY
Chain of human ROR1 with the isoleucine at position 111 replaced with the murine asparagine (Q01973 30-406 I111N limits assumed): as the sequence (Q01973 30-406 limits assumed) above, with I82N counted along it
Chain of human ROR1 with the glutamic acid at position 138 replaced with the murine lysine (Q01973 30-406 E138K limits assumed): as the sequence (Q01973 30-406 limits assumed) above, with E109K counted along it

- binding result (human ROR1 [1]): binds
B1: G3 mouse anti-ROR1 mAb (antibody, V domains shown)
VH: QVQLQQPGAELVKPGTSVKLSCKASGYNFTNYWINWVKLRPGQGLEWIGEIYPGSGSTNYNEKFKSKATLTADTSSSTAYMQLSSLASEDSALYYCARDGNYYAMDYWGQGTSVTVSS
VL: DIQMTQTTSSLSASLGDRVTITCRASQDINNYLNWYQQKPDGTVKLLIYYTSALHSGVPSRFSGSGSGTDYSLTISNLEQEDIATYFCQQGNTLPPYTFGGGTKLEIK

- binding result (human ROR1 [2]): binds
B2: F2 mouse anti-ROR1 mAb (antibody, V domains shown)
VH: EVQLQQSGPELEKPGASVKISCKASGFAFTGYNMNWVKQTNGKSLEWIGSIDPYYGGSTYNQKFKDKATLTVDKSSSTAYMQLKSLTSDDSAVYYCARSPGGDYAMDYWGQGTSVTVSS
VL: DIKMTQSPSSMYASVGERVTITCKASQGINSYSGWFQQKPGKSPKTLIYRGNRLVDGVPSRFSGSGSGQDYSLTISSLEYEDMGIYYCLQYDEFPYTFGGGTKLEIK

- binding result [3]: no binding
- binding result (murine ROR1): no binding
- Kd (human ROR1 [4]): 4 nM
B3: 4A5 mouse anti-ROR1 mAb (antibody, V domains shown)
VH: EVKLVESGGGLVKPGGSLKLSCAASGFTFSSYAMSWVRQIPEKRLEWVASISRGGTTYYPDSVKGRFTISRDNVRNILYLQMSSLRSEDTAMYYCGRYDYDGYYAMDYWGQGTSVTVSS
VL: B2 VL with V15L, Q27P, G28D, S33L, G34S, G51A, S65G, S76N, I106M
notes: also called 4A5 mAb; anti-ROR1 antibody 4A5

- binding result (human ROR1 [2]): binds
B4: F12 mouse anti-ROR1 mAb (antibody, V domains shown)
VH: B2 VH
VL: B2 VL

- binding result (human ROR1 [1]): binds
B5: G11 mouse anti-ROR1 mAb (antibody, V domains shown)
VH: EVKLVESGGGLVKPGGSLKLSCAASGFTFSSYAMSWVRQTPEKRLEWVASISTGASAYFPDSVKGRFTISRDNARNILYLQMSSLRSEDTAMYYCARITTSTWYFDVWGAGTTVTVSS
VL: B2 VL with V15L, G28D, S33L, G34S, G51A

- binding result (human ROR1 [2]): binds
B6: G6 mouse anti-ROR1 mAb (antibody, V domains shown)
VH: B2 VH
VL: B2 VL

- binding result (human ROR1 [1]): binds
B7: H10 mouse anti-ROR1 mAb (antibody, V domains shown)
VH: B5 VH
VL: B2 VL with V15L, G28D, S33L, G34S, G51A

- binding result [5]: no binding
- binding result (murine ROR1): no binding
- Kd (human ROR1 [6]): 40 nM
B8: D10 mouse anti-ROR1 mAb (antibody, V domains shown)
VH: QVQLKESGPGLVAPSQTLSITCTVSGFSLTSYGVHWVRQPPGKGLEWLGVIWAGGFTNYNSALKSRLSISKDNSKSQVLLKMTSLQTDDTAMYYCARRGSSYSMDYWGQGTSVTVSS
VL: EIVLSQSPAITAASLGQKVTITCSASSNVSYIHWYQQRSGTSPRPWIYEISKLASGVPVRFSGSGSGTSYSLTISSMEAEDAAIYYCQQWNYPLITFGSGTKLEIQ
notes: also called D10 mAb; anti-ROR1 antibody D10
